Biological target: PARP-1 (commercial) (Homo sapiens, UniProt P09874 SEQ:1-1013)
Assay: EMSA; 1.5 ug purified PARP-1, no shift
Conditions: tags: Trevigen; label: 32P
Experimental: To evaluate whether purified PARP-1 is associated with NRBS, Applicants performed EMSA using commercial PARP-1 and radiolabeled Probe A (FIG. 18, lane 3). […] As PARP-1 was reported to bind to DNA using its N-terminal domain, the N-terminal DNA-binding domain (1-372 aa) from human PARP-1 were stably transfected into KAK-1 cells. Nuclear extract from multiple pooled positive clones from this transfection or a single positive clone from the same transfection experiment were incubated with labeled Probe A and subjected to EMSA (FIG. 18; lanes 6 & 10, respectively). The gel-shift bands produced were not appreciably different from those produced by nuclear extract from KAK-1 cells transfected with the empty vector (pCR3.1; lane 8) or those produced by parental KAK-1 nuclear extract (lane 2). Addition of cold Probe A, in each case, competed similarly against their respective matched lanes (lanes 3, 7, 9, & 11).

Chain of PARP-1 (commercial) (P09874 2-1014): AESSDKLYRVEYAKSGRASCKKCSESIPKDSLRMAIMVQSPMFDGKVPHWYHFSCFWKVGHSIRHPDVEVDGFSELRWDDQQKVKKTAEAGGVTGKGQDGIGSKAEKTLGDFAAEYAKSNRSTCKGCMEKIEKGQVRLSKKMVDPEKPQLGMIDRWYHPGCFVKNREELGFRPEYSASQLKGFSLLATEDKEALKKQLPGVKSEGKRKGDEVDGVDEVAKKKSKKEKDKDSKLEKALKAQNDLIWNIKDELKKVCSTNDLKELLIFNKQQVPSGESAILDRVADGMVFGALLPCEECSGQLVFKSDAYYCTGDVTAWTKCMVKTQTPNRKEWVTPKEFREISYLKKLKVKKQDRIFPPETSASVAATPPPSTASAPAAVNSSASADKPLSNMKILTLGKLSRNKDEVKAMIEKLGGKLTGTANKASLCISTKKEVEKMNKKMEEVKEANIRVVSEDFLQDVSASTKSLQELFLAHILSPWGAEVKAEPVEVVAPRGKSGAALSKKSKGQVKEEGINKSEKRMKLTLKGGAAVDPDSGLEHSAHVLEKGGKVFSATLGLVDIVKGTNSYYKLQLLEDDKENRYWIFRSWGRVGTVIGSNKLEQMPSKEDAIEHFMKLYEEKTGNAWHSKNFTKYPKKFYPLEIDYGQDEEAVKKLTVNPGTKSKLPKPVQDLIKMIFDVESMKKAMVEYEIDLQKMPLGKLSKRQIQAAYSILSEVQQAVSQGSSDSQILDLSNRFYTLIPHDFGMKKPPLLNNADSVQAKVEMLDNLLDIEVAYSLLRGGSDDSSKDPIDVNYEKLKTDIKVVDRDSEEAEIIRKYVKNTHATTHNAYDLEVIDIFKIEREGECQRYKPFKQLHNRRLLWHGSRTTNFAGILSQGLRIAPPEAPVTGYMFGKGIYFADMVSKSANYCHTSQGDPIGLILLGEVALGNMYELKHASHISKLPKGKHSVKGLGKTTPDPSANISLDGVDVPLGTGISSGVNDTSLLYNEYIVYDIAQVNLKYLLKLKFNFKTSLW

B1: Probe A (-684 to -565 hNIS) (dsDNA)
DNA 1: AAGCAGGCTGTGCAGGCTTGGATAGTGACATGCCCTTTTTGAGCCTCAATTTCCCCACCTGTCAACAGCAGACAGTGACAGCTGTGATCAGGGGATCACAGTGCATGGGGATGGGTGTGT
DNA 2: ACACACCCATCCCCATGCACTGTGATCCCCTGATCACAGCTGTCACTGTCTGCTGTTGACAGGTGGGGAAATTGAGGCTCAAAAAGGGCATGTCACTATCCAAGCCTGCACAGCCTGCTT
B1: no binding.
